# T1: CLEVER-1 coated on the ELISA plate (competition ELISA, Examples 5 and 10) (human, UniProt Q9NY15 26-1027, limits assumed)
# T1 construct: Coated at 1 ug/ml in PBS; also called human Clever-1
# T1 sequence (looked up): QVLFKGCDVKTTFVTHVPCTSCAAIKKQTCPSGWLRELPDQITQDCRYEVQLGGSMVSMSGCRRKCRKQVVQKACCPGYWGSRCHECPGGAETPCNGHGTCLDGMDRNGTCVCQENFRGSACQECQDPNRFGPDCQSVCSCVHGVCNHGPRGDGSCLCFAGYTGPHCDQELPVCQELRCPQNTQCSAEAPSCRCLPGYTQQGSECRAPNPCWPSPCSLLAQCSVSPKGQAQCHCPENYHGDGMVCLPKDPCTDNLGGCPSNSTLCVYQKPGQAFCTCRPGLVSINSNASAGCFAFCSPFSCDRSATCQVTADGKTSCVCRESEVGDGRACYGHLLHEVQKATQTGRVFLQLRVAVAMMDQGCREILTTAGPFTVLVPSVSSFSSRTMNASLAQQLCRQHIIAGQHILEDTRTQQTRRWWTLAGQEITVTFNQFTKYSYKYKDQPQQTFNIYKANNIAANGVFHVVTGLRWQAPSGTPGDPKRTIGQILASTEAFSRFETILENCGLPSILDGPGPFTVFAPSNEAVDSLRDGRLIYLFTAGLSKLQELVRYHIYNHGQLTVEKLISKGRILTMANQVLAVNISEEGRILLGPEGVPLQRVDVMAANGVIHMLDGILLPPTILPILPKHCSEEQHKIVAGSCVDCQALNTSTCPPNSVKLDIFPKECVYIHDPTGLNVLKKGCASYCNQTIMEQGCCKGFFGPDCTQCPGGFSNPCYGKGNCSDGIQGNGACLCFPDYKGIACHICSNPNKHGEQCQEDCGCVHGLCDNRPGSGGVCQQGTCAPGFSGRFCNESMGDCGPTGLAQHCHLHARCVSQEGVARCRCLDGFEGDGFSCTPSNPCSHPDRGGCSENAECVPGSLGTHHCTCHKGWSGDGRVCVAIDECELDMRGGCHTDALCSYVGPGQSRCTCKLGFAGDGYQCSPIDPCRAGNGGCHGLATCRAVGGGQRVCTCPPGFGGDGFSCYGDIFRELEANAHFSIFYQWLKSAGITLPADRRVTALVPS
# Key:
# [1] = target: T1, CLEVER-1 coated on the ELISA plate …; experiment: competition ELISA on coated CLEVER-1 against 0.6 µg/ml biotinylated mouse 3-372
# Protocol: Briefly, a Nunc Immulon 96 well maxisorp plate (Fisher Cat. No. DIS-971-030J) was coated with CLEVER-1 at 1 μg/ml in PBS (100 μl/well) overnight at 4° C., with an additional 1 hour at 37° C. the following morning. Wells were washed with PBS/0.1% Tween 20 and then blocked for 45 min at room temperature, in 1% Marvel/1% BSA/PBS.
# The blocked ELISA plate was washed as before and 100 μl of the premixed antibodies added to each well. The plate was incubated for 1 hour at room temperature.
# This confirms that the correct variable region sequences have been identified and expressed in the chimeric antibody.
# [2] = target: T1, CLEVER-1 coated on the ELISA plate …; experiment: competition ELISA on coated CLEVER-1 against biotinylated mouse 3-372
# Protocol: These were incubated for 1 hour at room temperature on a 96 well Immulon maxisorp plate (Fisher Cat. No. DIS-971-030J) precoated with 1 μg/ml CLEVER-1. […] The reaction was stopped with 3M HCl, absorbance read at 450 nm on a Dynex Technologies MRX TC II plate reader and the binding curves plotted. IC50 values for each antibody were calculated and these were normalized to the IC50 of the chimera which was included on each respective ELISA plate.
Binder,IC50 [1] [µg/mL],Relative IC50 [2]
"chimeric 3-372 IgG4 (antibody, V domains shown, Expressed in NSO cells; also called CH/CK; chimera) VH: QVTLKESGPGILQPSQTLSLTCSFSGFSLNTSGMGIGWIRQPSGKGLEWLAHIWWDDDKRYNPALKSRLTISKDTSSNQVFLKIASVDTADTATYYCARHYGYDPYYAMDYWGQGTSVTVSS VL: QIVLTQSPAIMSASLGERVTMTCTASSSVSSSYLHWYQQRPGSSPKLCIYRTSNLASGVPPRFSGSGSGTSYSLTISSMEAEDAATYYCHQYHRSPPTFGGGTKLEIN",0.89,1 relative to the chimera on the same plate
"mouse monoclonal antibody 3-372 (DSM ACC2520) (antibody, V domains shown, Mouse hybridoma antibody with kappa light chain) VH: QVTLKESGPGILQPSQTLSLTCSFSGFSLNTSGMGIGWIRQPSGKGLEWLAHIWWDDDKRYNPALKSRLTISKDTSSNQVFLKIASVDTADTATYYCARHYGYDPYYAMDYWGQGTSVTVSS VL: QIVLTQSPAIMSASLGERVTMTCTASSSVSSSYLHWYQQRPGSSPKLCIYRTSNLASGVPPRFSGSGSGTSYSLTISSMEAEDAATYYCHQYHRSPPTFGGGTKLEIN",0.77,

# — patent US20190194317A1 (FARON PHARMACEUTICALS, published 2019)
